The target in this experiment is C-antigen (human). Nature of the experiment: cell-fixed ELISA, tumor cell lines.

B1: H11-scFv (scFv)
scFv: DIVLTQSPGTLSLSPGERATLSCRASQSVSSSYLAWYQQKPGQAPRLLIYGASTRATGMPDRFSGSGSGTDFTLTISRLEPEDFAVYYCQQYGSSPQTPQITFGGGTKVEIKRTVAAPSVSGGGGSGGGGSGGGGSQVQLVESGGGVVQPGRSLRLSCAASGFPFRSFAMHWVRQALGKGLEWVAVISYDGSTKYYADSVKGRFTISRDTSKNTVYLKMNSLRTEDTAVYYCARDQSLLGDYDHYYGLDVWGKGTTVTVSSGSEQKLISEEDLNHHHHH
B1 gave a fold greater affinity than the control (BGA scFv) of 8 to 50 fold.

Source of the values: patent US20030021779A1.
